# B1: S100B protein (natural protein, human)
# chain: SELEKAMVALIDVFHQYSGREGDKHKLKKSELKELINNELSHFLEEIKEQEVVDKVMETLDNDGDGECDFQEFMAFVAMVTTACHEFFEHE
# notes: S100B, Homo sapiens, UniProt P04271; Gene carried in the pETDuet-1 vector; The protein is a homodimer as purified; the monomer was obtained by extensive dialysis against deionized water; also called dimeric S100B; monomeric S100B; source: E. coli BL21-CodonPlus (DE3)-RIL, purified (ammonium sulfate, HiTrap Q XL anion exchange)
# Target: the molecule itself
# Test: native gel or EMSA; Coomassie-stained 16% native gel; dimeric S100B sample
protein,measurement,value
B1,binding result,binds
